In experiment [1] the target is T1, recombinant human αvβ6 extracellular domain (R&D Systems) (human, UniProt P06756 31-992; P18564 22-709).
T1 chain 1: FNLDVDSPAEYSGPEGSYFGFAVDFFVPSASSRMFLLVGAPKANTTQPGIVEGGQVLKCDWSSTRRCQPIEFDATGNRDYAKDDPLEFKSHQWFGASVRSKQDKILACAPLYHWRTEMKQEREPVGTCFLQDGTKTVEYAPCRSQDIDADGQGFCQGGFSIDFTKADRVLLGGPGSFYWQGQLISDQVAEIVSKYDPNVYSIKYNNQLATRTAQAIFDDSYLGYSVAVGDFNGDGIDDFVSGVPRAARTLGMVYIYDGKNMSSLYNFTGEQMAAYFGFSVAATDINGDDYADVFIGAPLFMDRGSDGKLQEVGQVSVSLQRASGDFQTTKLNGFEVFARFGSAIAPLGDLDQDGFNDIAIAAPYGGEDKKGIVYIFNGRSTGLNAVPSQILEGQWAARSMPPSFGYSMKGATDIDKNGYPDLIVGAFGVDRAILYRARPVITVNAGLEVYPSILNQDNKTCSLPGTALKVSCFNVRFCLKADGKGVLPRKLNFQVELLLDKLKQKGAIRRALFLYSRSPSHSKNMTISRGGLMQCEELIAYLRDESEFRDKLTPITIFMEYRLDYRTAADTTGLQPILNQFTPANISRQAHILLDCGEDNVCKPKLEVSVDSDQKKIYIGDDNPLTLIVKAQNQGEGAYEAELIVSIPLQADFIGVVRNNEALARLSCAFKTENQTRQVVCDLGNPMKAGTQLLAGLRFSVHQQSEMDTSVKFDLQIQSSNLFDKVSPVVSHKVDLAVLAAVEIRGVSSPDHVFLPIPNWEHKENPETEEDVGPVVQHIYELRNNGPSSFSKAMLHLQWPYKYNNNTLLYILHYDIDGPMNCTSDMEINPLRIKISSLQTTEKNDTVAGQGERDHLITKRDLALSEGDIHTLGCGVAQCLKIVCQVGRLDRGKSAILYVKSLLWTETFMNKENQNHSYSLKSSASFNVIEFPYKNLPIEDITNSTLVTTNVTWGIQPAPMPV
T1 chain 2: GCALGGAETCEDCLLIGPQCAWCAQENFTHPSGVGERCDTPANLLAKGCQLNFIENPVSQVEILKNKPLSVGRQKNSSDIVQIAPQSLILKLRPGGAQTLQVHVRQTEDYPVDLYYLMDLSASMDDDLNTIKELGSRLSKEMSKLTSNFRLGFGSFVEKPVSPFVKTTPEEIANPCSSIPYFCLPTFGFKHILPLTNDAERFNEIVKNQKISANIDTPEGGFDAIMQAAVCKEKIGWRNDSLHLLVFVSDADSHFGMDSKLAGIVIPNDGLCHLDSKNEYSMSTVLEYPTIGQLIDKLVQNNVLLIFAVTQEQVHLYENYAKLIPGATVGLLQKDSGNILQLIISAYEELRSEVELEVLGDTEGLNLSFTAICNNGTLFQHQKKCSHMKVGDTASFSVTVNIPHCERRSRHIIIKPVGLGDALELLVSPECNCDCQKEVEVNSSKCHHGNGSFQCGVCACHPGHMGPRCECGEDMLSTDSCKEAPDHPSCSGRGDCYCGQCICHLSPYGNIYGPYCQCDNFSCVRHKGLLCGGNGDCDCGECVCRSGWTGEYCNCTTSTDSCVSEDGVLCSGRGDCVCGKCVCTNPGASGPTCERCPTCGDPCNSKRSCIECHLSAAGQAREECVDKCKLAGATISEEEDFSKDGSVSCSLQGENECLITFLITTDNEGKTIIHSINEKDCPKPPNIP

In experiment [2] the target is T2, cell-surface expressed αvβ6 on human cells (5637 bladder cancer cells, HaCaT keratinocytes, BxPC-3 pancreatic … (human, UniProt P06756 31-1048; P18564 22-788).
T2 chain 1: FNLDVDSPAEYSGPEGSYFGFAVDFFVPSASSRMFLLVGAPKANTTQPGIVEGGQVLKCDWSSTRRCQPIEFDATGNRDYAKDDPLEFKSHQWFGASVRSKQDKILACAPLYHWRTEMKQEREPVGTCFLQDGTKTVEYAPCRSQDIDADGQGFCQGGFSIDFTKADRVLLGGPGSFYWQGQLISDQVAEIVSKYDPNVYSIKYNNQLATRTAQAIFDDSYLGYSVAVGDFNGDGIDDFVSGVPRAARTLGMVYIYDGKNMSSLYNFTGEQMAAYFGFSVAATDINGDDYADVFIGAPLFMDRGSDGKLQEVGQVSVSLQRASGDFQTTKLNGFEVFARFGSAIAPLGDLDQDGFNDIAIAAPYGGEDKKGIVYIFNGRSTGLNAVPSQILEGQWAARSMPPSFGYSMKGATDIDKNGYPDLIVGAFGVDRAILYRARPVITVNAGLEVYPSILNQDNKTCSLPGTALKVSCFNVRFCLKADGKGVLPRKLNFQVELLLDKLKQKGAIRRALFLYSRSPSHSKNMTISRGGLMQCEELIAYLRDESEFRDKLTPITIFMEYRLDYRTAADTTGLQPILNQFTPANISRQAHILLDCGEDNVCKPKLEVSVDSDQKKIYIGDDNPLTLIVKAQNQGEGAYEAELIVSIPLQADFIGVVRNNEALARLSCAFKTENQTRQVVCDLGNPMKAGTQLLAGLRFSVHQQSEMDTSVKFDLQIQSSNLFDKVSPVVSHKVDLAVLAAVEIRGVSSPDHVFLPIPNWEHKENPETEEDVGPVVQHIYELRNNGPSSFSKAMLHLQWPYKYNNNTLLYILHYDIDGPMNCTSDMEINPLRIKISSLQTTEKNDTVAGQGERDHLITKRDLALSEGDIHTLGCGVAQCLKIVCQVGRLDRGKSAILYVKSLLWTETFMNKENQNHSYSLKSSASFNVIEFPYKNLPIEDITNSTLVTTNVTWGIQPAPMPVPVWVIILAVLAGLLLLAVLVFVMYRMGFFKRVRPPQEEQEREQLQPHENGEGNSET
T2 chain 2: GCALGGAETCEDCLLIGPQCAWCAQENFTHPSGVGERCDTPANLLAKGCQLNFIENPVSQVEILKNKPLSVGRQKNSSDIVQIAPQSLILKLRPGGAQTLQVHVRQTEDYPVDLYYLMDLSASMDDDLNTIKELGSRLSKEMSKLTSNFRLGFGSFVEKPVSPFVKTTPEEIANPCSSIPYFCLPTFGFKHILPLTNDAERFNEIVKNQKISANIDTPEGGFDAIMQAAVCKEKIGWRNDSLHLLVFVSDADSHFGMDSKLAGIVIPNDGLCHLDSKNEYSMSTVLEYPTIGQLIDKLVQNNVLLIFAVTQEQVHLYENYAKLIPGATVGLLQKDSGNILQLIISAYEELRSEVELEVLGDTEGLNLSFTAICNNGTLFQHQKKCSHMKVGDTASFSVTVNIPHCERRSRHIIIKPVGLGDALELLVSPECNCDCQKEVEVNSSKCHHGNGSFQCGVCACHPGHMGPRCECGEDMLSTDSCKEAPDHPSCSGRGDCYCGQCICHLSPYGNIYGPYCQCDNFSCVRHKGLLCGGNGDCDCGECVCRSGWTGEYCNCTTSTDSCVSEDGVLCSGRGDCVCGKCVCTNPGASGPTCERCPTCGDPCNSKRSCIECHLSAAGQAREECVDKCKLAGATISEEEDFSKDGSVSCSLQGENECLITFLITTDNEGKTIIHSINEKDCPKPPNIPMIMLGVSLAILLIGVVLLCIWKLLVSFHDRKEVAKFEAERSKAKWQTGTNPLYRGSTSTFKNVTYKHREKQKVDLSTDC
As to the kind of experiment: FACS. (In general: Flow cytometry measures light scatter and fluorescence of single cells or particles in a stream.)

The target of experiment [3] is T2, cell-surface expressed αvβ6 on human …. As to the kind of experiment: FACS.
The target in experiment [4] is T1, recombinant human αvβ6 extracellular ….
For experiment [5], the target named is T3, αvβ8 integrin (purified, coated on microtiter plates) (UniProt P06756 31-992; P26012 43-684).
T3 chain 1: T1 chain 1
T3 chain 2: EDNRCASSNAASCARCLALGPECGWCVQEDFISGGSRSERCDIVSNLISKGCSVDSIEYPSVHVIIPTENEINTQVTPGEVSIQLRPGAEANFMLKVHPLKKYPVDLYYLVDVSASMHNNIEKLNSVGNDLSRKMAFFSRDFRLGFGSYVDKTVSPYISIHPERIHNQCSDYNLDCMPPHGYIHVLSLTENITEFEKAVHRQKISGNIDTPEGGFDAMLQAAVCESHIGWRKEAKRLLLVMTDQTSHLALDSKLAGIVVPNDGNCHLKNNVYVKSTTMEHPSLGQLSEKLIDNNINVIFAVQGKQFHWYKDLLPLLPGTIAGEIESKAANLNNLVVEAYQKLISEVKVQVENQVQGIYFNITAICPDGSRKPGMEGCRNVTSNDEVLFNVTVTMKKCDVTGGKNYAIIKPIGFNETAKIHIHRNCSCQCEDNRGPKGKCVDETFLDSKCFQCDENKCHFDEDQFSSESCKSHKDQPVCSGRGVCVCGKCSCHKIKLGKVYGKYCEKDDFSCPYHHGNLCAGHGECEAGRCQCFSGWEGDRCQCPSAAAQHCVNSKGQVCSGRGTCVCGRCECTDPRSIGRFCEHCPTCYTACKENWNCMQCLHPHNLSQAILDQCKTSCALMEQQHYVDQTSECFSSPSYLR

For experiment [6], the target named is T1, recombinant human αvβ6 extracellular ….

Usually Ki stands for a measure of affinity in units of concentration, obtained from inhibition or displacement. As usually defined, the IC50 is the midpoint of a concentration-inhibition curve. Read a high IC50 as a need for much substance. Usually EC50 stands for the concentration at which the effect is half-maximal.

Like-named read-outs stand apart in the source and are kept apart here. Bridges are numbered along the chain shown (N, C = ends). Where no end group is shown, it is not given here. [ ]: non-standard residue; d: D form. maleimide‑NOTA = 1,4,7-triazacyclononane-1,4-bis-acetic acid-7-maleimidoethylacetamide; Lys(N3) = [N-]=[N+]=NCCCC[C@H](N)C(=O)O; Pra = C#CC[C@H](N)C(=O)O

Consider CFETLRGDLRILSILR[Pra]QNL[Lys(N3)]KELQD-NH2 (triazole 17-21) [peptide 5a], for which the Ki in experiment [1] is 1.71 nM. In the case of FETLRGDERILSILRHQNLLKELQD [peptide 1 (CgA-derived peptide, residues 39-63), synthetic], the IC50 in experiment [2] amounted to 640 nM.

As to FETLRGDLRILSILRHQNLLKELQD [peptide 4], the IC50 in experiment [3] worked out at 80 nM; in experiment [2], 16.9 nM. As for C(maleimide‑NOTA)FETLRGEERILSILRHQNLLKELQD [NOTA-2a (peptide 2a coupled to maleimide-NOTA)], in experiment [1], the Ki was > 1000 nM. Consider CFETLRGEERILSILRHQNLLKELQD [peptide 2a], for which, in experiment [4], the Ki was > 100 nM. Take C(IRDye 800CW maleimide)FETLRGDLRILSILR[Pra]QNL[Lys(N3)]KELQD-NH2 (triazole 17-21) [5a-IRDye (peptide 5a coupled via Cys to maleimide-IRDye 800CW)]: the figures for the concentration for a half-maximal effect (EC50) in experiment [5] and in experiment [6] were 1.9 nM and 2.8 nM, respectively. For Ac-FETLRGDLRILSILR[Pra]QNL[Lys(N3)]KELQD-NH2 (triazole 16-20) [peptide 5 (triazole-stapled CgA39-63-derived peptide)], the IC50 was determined as 25 nM in experiment [3] and 3.6 nM in experiment [2]. The Ki in experiment [1] is 0.93 nM; in experiment [4], 0.84 nM. Consider C(maleimide‑NOTA)FETLRGDLRILSILR[Pra]QNL[Lys(N3)]KELQD-NH2 (triazole 17-21) [NOTA-5a (peptide 5a coupled to maleimide-NOTA)], for which the Ki in experiment [1] is 2.31 nM.
